In article PMC12712053:

Assays:
[1] = molecular target: human Mre11 core (HsMre11c) (human); assay: native gel or EMSA
[2] = molecular target: human Mre11 core (HsMre11c) (human); assay: SEC

stoichiometry N [1]: 2
stoichiometry N [2]: 2
Substance: human Mre11 core (HsMre11c) (domain or fragment)
